Read-outs that look alike come from different tables or passages of the source.
Tests used:
[1] = EGFP fluorescence in transfected HeLa cells; details: glycan lost; control: P0wt-EGFP
[2] = aggregate area of transfected HeLa cells; details: glycan lost; control: P0wt-EGFP
[3] = confocal EGFP imaging of HeLa cells; details: glycan changed form; control: untreated cells, same construct
[4] = HeLa adhesion assay; details: glycan changed form; control: untreated P0D61N cells

## P0 K138N (Myelin Protein Zero mutant): K138N
N-glycosylation at N138
  localisation_or_trafficking: decreases

## P0 D109N (Myelin Protein Zero mutant): D109N
N-glycosylation at N109
  localisation_or_trafficking: decreases

## P0 D61N (mouse Mpz knock-in mutant): D61N (MpzD61N/+ mice)
N-glycosylation at N61
  expression_or_secretion: no change

## P0 D118N (Myelin Protein Zero mutant): D118N
N-glycosylation at N118
  localisation_or_trafficking: no change

## P0 D61N (Myelin Protein Zero mutant): D61N
N-glycosylation at N61
  localisation_or_trafficking: decreases

## P0 D61N (mouse Mpz knock-in mutant): D61N (MpzD61N/− mice)
N-glycosylation at N61
  localisation_or_trafficking: changes

## P0 D61N (Myelin Protein Zero mutant): 750 μM N-butyl-deoxynojirimycin (NB-DNJ) on HeLa cells expressing D61N
N-glycosylation at N61
  localisation_or_trafficking: increases

B1: P0 (Myelin Protein Zero): N122S (protein)
parent chain: MAPGAPSSSPSPILAVLLFSSLVLSPAQAIVVYTDREVHGAVGSRVTLHCSFWSSEWVSDDISFTWRYQPEGGRDAISIFHYAKGQPYIDEVGTFKERIQWVGDPRWKDGSIVIHNLDYSDNGTFTCDVKNPPDIVGKTSQVTLYVFEKVPTRYGVVLGAVIGGVLGVVLLLLLLFYVVRYCWLRRQAALQRRLSAMEKGKLHKPGKDASKRGRQTPVLYAMLDHSRSTKAVSEKKAKGLGESRKDKK
[1]
  localisation_or_trafficking: no change
[2]
  other: homophilic cell adhesion, percent_of_wt: no change

B2: P0 (Myelin Protein Zero): T124M (protein)
parent chain: B1 parent chain
[1]
  localisation_or_trafficking: no change
[2]
  other: homophilic cell adhesion, percent_of_wt: no change

B3: P0 (Myelin Protein Zero): 750 μM NB-DNJ on P0wt (protein)
parent chain: B1 parent chain
[3]
  localisation_or_trafficking: no change

B4: P0 (Myelin Protein Zero): 750 μM NB-DNJ on P0D61N (protein)
parent chain: B1 parent chain
[4]
  other: homophilic cell adhesion: increases

B5: P0 (Myelin Protein Zero): T124A (protein)
parent chain: B1 parent chain
[1]
  localisation_or_trafficking: no change
[2]
  other: homophilic cell adhesion, percent_of_wt: no change

B6: P0 (Myelin Protein Zero): T124K (protein)
parent chain: B1 parent chain
[1]
  localisation_or_trafficking: no change

— PMC9759335
